Patent publication US20230285578A1 (INDIANA UNIVERSITY RESEARCH AND TECHNOLOGY, published 2023)
Starred links: 1 amine or outer side, 2 acyl side, 3 side chain; linkers in the order of their positions; H or OH if unused. Groups on a side chain read outwards from the residue. No end group written: not given here. *: point of attachment. C18 diacid = O=C(O)CCCCCCCCCCCCCCCCC(=O)*; γGlu = O=C(O)[C@H](CCC(=O)[*:2])N[*:1]; AEEA = NCCOCCOCC(=O)O

What was measured:
Assay in all cases: cell-based or functional assay
PTH1 receptor, Q03431 = target: T1, PTH1 receptor, Q03431
T1 chain: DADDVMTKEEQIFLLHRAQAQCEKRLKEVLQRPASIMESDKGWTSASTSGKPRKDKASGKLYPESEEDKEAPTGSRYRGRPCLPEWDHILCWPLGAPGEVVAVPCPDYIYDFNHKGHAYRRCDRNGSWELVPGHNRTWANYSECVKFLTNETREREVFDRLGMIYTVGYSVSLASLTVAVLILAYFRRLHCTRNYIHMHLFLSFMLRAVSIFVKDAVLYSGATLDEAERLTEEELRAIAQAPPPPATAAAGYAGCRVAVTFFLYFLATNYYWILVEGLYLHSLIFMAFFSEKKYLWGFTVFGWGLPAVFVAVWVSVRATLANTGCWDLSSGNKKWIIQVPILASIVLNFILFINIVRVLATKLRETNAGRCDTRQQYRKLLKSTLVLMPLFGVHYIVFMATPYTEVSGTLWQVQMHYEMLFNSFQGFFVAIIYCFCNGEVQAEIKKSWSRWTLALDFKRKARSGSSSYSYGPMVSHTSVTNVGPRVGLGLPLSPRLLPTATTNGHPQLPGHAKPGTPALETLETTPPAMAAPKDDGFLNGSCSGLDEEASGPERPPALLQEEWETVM

PTH1 receptor [1] = target: T2, PTH1 receptor (UniProt Q03431 27-593, limits assumed)
T2 sequence (looked up): T1 chain

PTH1 receptor [2] = target: T2, PTH1 receptor; remark: listed apart in the source
PTH1 receptor [3] = target: T2, PTH1 receptor; remark: listed apart in the source
PTH1 receptor [4] = target: T2, PTH1 receptor; remark: listed apart in the source
PTH1 receptor [5] = target: T2, PTH1 receptor; remark: listed apart in the source
PTH1 receptor [6] = target: T2, PTH1 receptor; remark: listed apart in the source
PTH1 receptor [7] = target: T2, PTH1 receptor; remark: listed apart in the source

SVSEIELMHNLGKHLNSMERVEWLRKKLQDVHK([γGlu-miniPEG-miniPEG-γGlu-C18 diacid]) (ends and bridges not checked) [SEQ ID NO: 118]
EC50 pM (cAMP Hunter Teriparatide Bioassay, CHO-K1 PTHR1 cells; FIG. 13A) (PTH1 receptor, Q03431): 80.3 pM

SVSEIQLMHDLGKHLNSMERVEWLRKKLQDVHK([γGlu-miniPEG-miniPEG-γGlu-C18 diacid]) (ends and bridges not checked) [SEQ ID NO: 120]
EC50 pM (cAMP Hunter Teriparatide Bioassay, CHO-K1 PTHR1 cells; FIG. 13A) (PTH1 receptor, Q03431): 10.9 pM

SVSEIQLMHNLGKHLDSMERVEWLRKKLQDVHK([γGlu-miniPEG-miniPEG-γGlu-C18 diacid]) (ends and bridges not checked) [SEQ ID NO: 122]
EC50 pM (cAMP Hunter Teriparatide Bioassay, CHO-K1 PTHR1 cells; FIG. 13B) (PTH1 receptor, Q03431): 14.3 pM

SVSEIQLMHNLGKHLNSMERVEWLRKKLEDVHK([γGlu-miniPEG-miniPEG-γGlu-C18 diacid]) (ends and bridges not checked) [SEQ ID NO: 124]
EC50 pM (cAMP Hunter Teriparatide Bioassay, CHO-K1 PTHR1 cells; FIG. 13B) (PTH1 receptor, Q03431): 43.1 pM

B1: PTH(1-33), A8, K33(γE-2xOEG-γE-diacidC18) (peptide)
peptide: SVSEIQLAHNLGKHLNSMERVEWLRKKLQDVHK([γGlu-AEEA-AEEA-γGlu-C18 diacid])-OH
modifications: N-terminus assumed
SMILES: CC[C@H](C)[C@H](NC(=O)[C@H](CCC(=O)O)NC(=O)[C@H](CO)NC(=O)[C@@H](NC(=O)[C@@H](N)CO)C(C)C)C(=O)N[C@@H](CCC(N)=O)C(=O)N[C@@H](CC(C)C)C(=O)N[C@@H](C)C(=O)N[C@@H](Cc1c[nH]cn1)C(=O)N[C@@H](CC(N)=O)C(=O)N[C@@H](CC(C)C)C(=O)NCC(=O)N[C@@H](CCCCN)C(=O)N[C@@H](Cc1c[nH]cn1)C(=O)N[C@@H](CC(C)C)C(=O)N[C@@H](CC(N)=O)C(=O)N[C@@H](CO)C(=O)N[C@@H](CCSC)C(=O)N[C@@H](CCC(=O)O)C(=O)N[C@@H](CCCNC(=N)N)C(=O)N[C@H](C(=O)N[C@@H](CCC(=O)O)C(=O)N[C@@H](Cc1c[nH]c2ccccc12)C(=O)N[C@@H](CC(C)C)C(=O)N[C@@H](CCCNC(=N)N)C(=O)N[C@@H](CCCCN)C(=O)N[C@@H](CCCCN)C(=O)N[C@@H](CC(C)C)C(=O)N[C@@H](CCC(N)=O)C(=O)N[C@@H](CC(=O)O)C(=O)N[C@H](C(=O)N[C@@H](Cc1c[nH]cn1)C(=O)N[C@@H](CCCCNC(=O)CC[C@H](NC(=O)COCCOCCNC(=O)COCCOCCNC(=O)CC[C@H](NC(=O)CCCCCCCCCCCCCCCCC(=O)O)C(=O)O)C(=O)O)C(=O)O)C(C)C)C(C)C
in vitro potency (fold reduction against the analog without A8) (PTH1 receptor [1]): ~100 fold

B2: PTH(1-33), K33(γE-2xOEG-γE-diacidC18) (peptide)
peptide: SVSEIQLMHNLGKHLNSMERVEWLRKKLQDVHX
modifications: Lys33 side chain acylated with γE-(miniPEG)2-γE-COC16H32CO2H; C-terminal free acid
EC50 pM (cAMP Hunter Teriparatide Bioassay, CHO-K1 PTHR1 cells; FIG. 13B) (PTH1 receptor [2]): 19.3 pM
EC50 pM (cAMP Hunter Teriparatide Bioassay, CHO-K1 PTHR1 cells; FIG. 12) (PTH1 receptor [3]): 36.6 pM
EC50 pM (cAMP Hunter Teriparatide Bioassay, CHO-K1 PTHR1 cells; FIG. 11) (PTH1 receptor [4]): 10 pM
EC50 pM (cAMP Hunter Teriparatide Bioassay, CHO-K1 PTHR1 cells; FIG. 8A) (PTH1 receptor [5]): 31 pM
EC50 pM (cAMP Hunter Teriparatide Bioassay, CHO-K1 PTHR1 cells; FIG. 13A) (PTH1 receptor [6]): 10.7 pM

SVSEIQLMHNLGKHLNSMERVEWLRKKLQDVHNFX (Lys35 side chain acylated with γE-COC16H32CO2H (C18 diacid); C-terminal amide) [PTH(1-35)a, K35(γE-diacidC18)]
Potency EC50 (cAMP-responsive luciferase reporter, HEK293 cells co-transfected with the PTH1 receptor) (PTH1 receptor [7]): 2.9 nM

SVSEIQLMHNLGKHLNSXERVEWLRKKLQDVHX (site-specifically oxidised to methionine sulfoxide (position not given)) [SEQ ID NO: 110]
EC50 pM (cAMP Hunter Teriparatide Bioassay, CHO-K1 PTHR1 cells; FIG. 12) (PTH1 receptor [3]): 41.7 pM

B3: PTH(1-34), dK-1(γE-diacidC18), N(Me)G0 (peptide)
peptide: XXSVSEIQLMHNLGKHLNSMERVEWLRKKLQDVHNF
modifications: d-Lys at position -1 with side chain acylated with γE-COC16H32CO2H; N-methyl-Gly (sarcosine) at position 0; C-terminal free acid
Potency EC50 (cAMP-responsive luciferase reporter, HEK293 cells co-transfected with the PTH1 receptor) (PTH1 receptor [7]): 45.5 nM

B4: PTH(1-35)a, dK-1(γE-diacidC18), N(Me)G0, K35(γE-diacidC18) (peptide)
peptide: XXSVSEIQLMHNLGKHLNSMERVEWLRKKLQDVHNFX
modifications: d-Lys at position -1 with side chain acylated with γE-COC16H32CO2H; N-methyl-Gly (sarcosine) at position 0; Lys35 side chain acylated with γE-COC16H32CO2H; C-terminal amide
Potency EC50 (cAMP-responsive luciferase reporter, HEK293 cells co-transfected with the PTH1 receptor) (PTH1 receptor [7]): 200 nM
